Reference: patent US20210163595A1

Columns and labels:
[1] = molecular target: cyno PD-1 expressed on cells (cynomolgus monkey) (UniProt B0LAJ3); assay: flow cytometry on CHO cells expressing cyno PD-1; negative control; fit value of a flat curve; no unit in the table
[2] = molecular target: human PD-1 expressed on the cell surface (human) (UniProt Q15116); assay: flow cytometry on CHO cells expressing human PD-1; negative control; fit value of a flat curve; no unit in the table
[3] = molecular target: human PD-1 expressed on the cell surface (human) (UniProt Q15116); assay: cell-based or functional assay

Chain of UniProt Q15116 (Q15116 25-198 limits assumed): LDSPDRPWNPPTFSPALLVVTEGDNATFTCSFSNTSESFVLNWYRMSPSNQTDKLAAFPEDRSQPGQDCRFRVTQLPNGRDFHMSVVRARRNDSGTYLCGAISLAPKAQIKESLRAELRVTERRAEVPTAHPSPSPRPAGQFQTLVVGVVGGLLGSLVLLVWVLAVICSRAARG
Chain of UniProt B0LAJ3 (B0LAJ3 entry or part of it limits assumed): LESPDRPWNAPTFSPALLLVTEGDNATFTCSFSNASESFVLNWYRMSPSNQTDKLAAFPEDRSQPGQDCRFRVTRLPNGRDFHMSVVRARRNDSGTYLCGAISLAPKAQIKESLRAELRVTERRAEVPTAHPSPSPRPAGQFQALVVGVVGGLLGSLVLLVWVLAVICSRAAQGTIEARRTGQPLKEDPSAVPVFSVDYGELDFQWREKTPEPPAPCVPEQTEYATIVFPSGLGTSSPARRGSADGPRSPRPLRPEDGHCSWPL

LogEC50 [1] | LogEC50 [2] | IL-17 and IFN-γ levels, human whole blood assay (EC50) [3] | Substance
-6.89 | -7.75 |  | huIgG1 Fc
 |  | > 0.1 µM | human IgG Fc fragment
